Experimental findings from doi:10.1101/2024.08.05.606605v1 are described below.

For this data set, the system named is O=[N+]([O-])c1ccc(O[C@@H]2O[C@H](CO)[C@@H](O)[C@H](O)[C@H]2O)cc1. Kind of data set: purified protein. The conditions noted are these: 50 mM sodium acetate pH 5.5, 55 °C.
What is called Km is the concentration of substrate that gives half-maximal velocity. As a reminder, the kcat is the maximal rate divided by the concentration of active sites. As to “WT-AtGH1 (Acetivibrio thermocellus ATCC 27405)”, the Km was determined as 2420 ± 170 µM and the kcat worked out at 10.08 s⁻¹.
The matching figures for “WT-AtGH1 (Acetivibrio thermocellus ATCC 27405; G168W)”: 2230 ± 130 µM and 9.1175 s⁻¹.
Taken in the same sequence, the figures for “WT-AtGH1 (Acetivibrio thermocellus ATCC 27405; G168W/S242L)” were 1320 ± 110 µM and 12.38 s⁻¹.
As to “WT-AtGH1 (Acetivibrio thermocellus ATCC 27405; S242L)”, the Km came to 1790 ± 110 µM and the kcat was found to be 7.0875 s⁻¹.
Taken in the same sequence, the figures for “WT-AtGH1 (Acetivibrio thermocellus ATCC 27405; S242W)” were 2100 ± 100 µM and 27.115 s⁻¹.
